{
  "source": "paper PMC10779317",
  "target": "Dnmt3a-CD (mouse (murine)) (UniProt O88508)",
  "sequence (O88508 630-908)": "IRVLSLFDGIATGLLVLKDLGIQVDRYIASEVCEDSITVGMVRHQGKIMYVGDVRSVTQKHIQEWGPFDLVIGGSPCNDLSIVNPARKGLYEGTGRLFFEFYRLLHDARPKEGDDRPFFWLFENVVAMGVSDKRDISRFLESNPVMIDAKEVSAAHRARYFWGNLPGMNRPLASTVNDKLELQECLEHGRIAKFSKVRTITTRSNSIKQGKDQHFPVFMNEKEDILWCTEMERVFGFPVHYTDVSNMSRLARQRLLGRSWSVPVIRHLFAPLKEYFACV",
  "assay": "competition (inhibition of 30Uf/30Df methylation)",
  "conditions": "20 mM HEPES-NaOH pH 7.5, 100 mM KCl, 1 mM EDTA, 1 mM DTT, 100 uM AdoHcy, 10 nM DNA (60 nM for PWWP); FP temperature not stated; methylation competition at 37 C …",
  "data": [
    {"sequence": "TGGGGAGGGTGAGGAGTGTGGGGAAGG [27G4-mut]", "values": [
      {"measurement": "IC50", "value": 1100, "unit": "nM"}
    ]}
  ]
}
